# Measured values published in the nanobody polyreactivity screen of Harvey et al. (2022).
# Assay: yeast display, Sf9 membrane polyspecificity reagent, FACS + sequencing; frameworks hold sequencing errors
# Procedure, shortened: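 Using colony PCR, genes from sorted yeast display clones were amplified, then sequenced on MiSeq at 2 × 250 and filtered by CDR length. The clones had been stained with 10% biotinylated, detergent-solubilized Sf9 membrane reagent for 1 hour at 4 °C and sorted by FACS into low and high (top ~1%) gates on anti-HA and streptavidin fluorescence. Polyreactivity labels come from the gate of origin.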
row,Sequence,polyreactivity (PSR sort gate)
1,QVQLVESGGGLVQAGGSLRLSCAASGIIFISYVMGWYRQAPGKERELVAAITRSGDSTYYADSVKGRFTISRDNAKNTVYVQMNSLKPEDTAVYYCAAEHAYSYWDYDYWGQGTQVTVSS,high polyreactivity
2,QVQLVESGGGLVQAGGSLRLSCAASGIIFKLYAMGWYRQAPGKEREFVATITKTGGRTYYEDSVKGRFTISRDNAKNTVYLQMNSLKPEDTAVYYCAARRVNGKMYYWGQGTQVTVSS,high polyreactivity
3,QVQLVESGGGLVQAGGSLRLSCAASGIIFKRYAMGWYRQAPGKDRELVAAISSRAGRTYYADSVKGRFTISRDNAKNNVYLQLNSLKPEDTAVYYCNTGLVYGYDYWGQGTQVTVSS,high polyreactivity
4,QVQLVESGGGLVQAGGSLRLSCAASGIIFKSNAMGWSRQAPGKERELVAAIRSSGSTNYADSVKGRFTISRDNAKNTVYLQLNSLKPEDTAVYYCAVSSWSVWGHYYWGQGTQVTVSS,high polyreactivity
5,QVQLVESGGGLVQAGGSLRLSCAASGIIFKYNAMGWSRQAPGKERELVAAITSGGSTYYADSVKGRFTISRDNAKNTVYLQRNSLKPEDTAVYYCAARYTYVKNFFRRLTAYYYWGQGTQVTVSS,high polyreactivity
6,QVQLVESGGGLVQAGGSLRLSCAASGIIFKYNVMGWYTQAPGKERELVAAITDSGTSTFYADSVKGRFTISRDNAKNTVSLQMNSLKPEDTAFYYCAADEFSVFTIETYGYDYWGQGTQVTVSS,low polyreactivity
7,QVQLVESGGGLVQAGGSLRLSCAASGIIFLWYAMGWYRQAPGKERELVAAISRTGSSTYYADSVKGRFTISRDNAKNTVYFQMNSLKPEDTAVYYCAAAYYSKRSWRFDYWGQGTQVTVSS,high polyreactivity
8,QVQLVESGGGLVQAGGSLRLSCAASGIIFNDYAMGWYRQAPGKERELVATISWSGGSTYADSVKGRFTISRDNAKNTVYLQMNSLKPEDTAVYYCAAVPRRSYGGYPYYYWGQGTQVTVSS,low polyreactivity
9,QVQLVESGGGLVQAGGSLRLSCAASGIIFNGYAMGWYRQAPGKERELVAAISSSGGRTYYADSVKGRFTISRDNAKNTVYLQMNSLKPEDTAVYYCAADAAGSRVYPYDYWGQGTQVTVSS,high polyreactivity
10,QVQLVESGGGLVQAGGSLRLSCAASGIIFPFYAMGWYRKAPGKERELVAAITSDGNTNYADSVKGRFTISRDNAKNTVYLQMNSLKPEDTAVYYCNAETQYGVLSWHSTRHEYWGQGTQVTVSS,low polyreactivity
11,QVQLVESGGGLVQAGGSLRLSCAASGIIFPFYAMGWYRQAPGKERELVAAITSGGDTYYADSVKGRFTISRDNAKNTVYLQMNSLKPEDTAVYYCAAVYRRQYGYWGQGTQVTVSS,high polyreactivity
12,QVQLVESGGGLVQAGGSLRLSCAASGIIFPPYTMGWYRQAPGKERELVAAINTRGSRTYYADSVKGRFTISRDNAKNTVYLQMNSLKPEDTAVYYCAADVWWSTTYDYWGQGTQVTVSS,high polyreactivity
13,QVQLVESGGGLVQAGGSLRLSCAASGIIFPRYALGWYRQAPGKERELVAAITIGGRTNYADSVKGRFTISRDNAKNTVYLQMNSLKPEDPAVYYGAAQTYVPYYEYDYWGQGTQVTVSS,low polyreactivity
14,QVQLVESGGGLVQAGGSLRLSCAASGIIFPSYVMGWYRQAPGKERELVAAISSRGTSTYYADSVKGRFTISRDHAKNTVYLQMNSLKPEDTAVYYCAAKSFGTTTRSEYDYWGQGTQVTVSS,high polyreactivity
15,QVQLVESGGGLVQAGGSLRLSCAASGIIFPTYAMGWYRQAPGKERELVAAISVSGGTTSYADSVKGRFTISRDNAKNTVYLQMNSLKPEDTAVYYCAKRPFSTRYDYWGQGTQVTVSS,high polyreactivity
16,QVQLVESGGGLVQAGGSLRLSCAASGIIFPVYAMGWYRQAPGKERELVAAISNRAGSTYYADSVKGRFTISRDNAKNSVYLQMNSLKPEDTAVYYCAAASRRSGASSWYDYWGQGTQVTVSS,high polyreactivity
17,QVQLVESGGGLVQAGGSLRLSCAASGIIFPWYAMGWYRPAPGKERELVAAISGSGGSTYYADSVKGRFTISRDNAKNTVYLQMNSLKPEDTAVYYCAAYPRGSQRYNYGGQGTQVTVSS,high polyreactivity
18,QVQLVESGGGLVQAGGSLRLSCAASGIIFPYNAMGWYRQAPGKERELVAAITGGGSTYYADSVKGRFTISRDNAKNTVYLQMNSLKPEDTAVYYCAADRSGPGYDYWGQGTQVTVSS,low polyreactivity
19,QVQLVESGGGLVQAGGSLRLSCAASGIIFPYYAMGWYREAPGIERELVAGLDSSGSSTNYADSVKGRFTISRDTAKTTVYLQITSLQPEDTAVYYCAKVTSSGDAVLTQIPYGYDYWGQGTQVTVSS,low polyreactivity
20,QVQLVESGGGLVQAGGSLRLSCAASGIIFPYYSMGWYRQAPGKERELVAAITSSGGSTYYADSVKGRFTISRDNAKNTVYLQMNSLKPEDTAVYYCAAQTWGHGGDSWGQGTQVTVSS,high polyreactivity
21,QVQLVESGGGLVQAGGSLRLSCAASGIIFQAYAKGWYRQAPGKERELVAAISYSGGSTYYAESVKGRFTISRDNAKNNVDLQMNRLKPEVTAVYYCAAELYRYWFDMYYWGQGTQVTVSS,low polyreactivity

row,Sequence,polyreactivity (PSR sort gate)
1,QVQLVESGGGLVQAGGSLRLSCAASGIIFQPYAMGWYRQAPGKERELVAAITYSGDGTFYADSVKGRFTISRDNAKNTVYLQMNSLKPEDTAVYYCAAYPRDPYKEYDYWGQGTQVTVSS,low polyreactivity
2,QVQLVESGGGLVQAGGSLRLSCAASGIIFQRNDMGWYRQAHGKERELVANIRDGGITYADSVKGRFTISRDNAKNTVYLKMNSLKPEDTAVYYCARDDTSPGYGDQSSNASNYYWGQGTQVTVSS,low polyreactivity
3,QVQLVESGGGLVQAGGSLRLSCAASGIIFQRNDMGWYRQAPGKERELDANIRDGGITYADSVKGRFTISRDNAKNTVYLQMNSLKPEDTAVYYCARYDTSPGYGDQSSNAAYYYWGQVTQVTVSS,low polyreactivity
4,QVQLVESGGGLVQAGGSLRLSCAASGIIFRGNALGWYRPAPGKERELVAAISRSGRTNYADSVKGRFTISRDNAKNTVYLQMNSLKPEDNAVYYCAVDKRYGRVVGRDYDYWGQGTQVTVSS,high polyreactivity
5,QVQLVESGGGLVQAGGSLRLSCAASGIIFRGYAMGWYRQAPGKERELVAAISKSGGSTYYADSVKGRFTISRDNAKNTVYLQMNSLKPEDTAVYYCAADVYKQYGYYYWGQGTQVTVSS,high polyreactivity
6,QVQLVESGGGLVQAGGSLRLSCAASGIIFRGYAMRWYRQAPGKVREVVAVITSGGGTYYADSVKGRFTISRDNAKNNVYLQMNSLKPEETAVYYCNAASSLPGYDYWGQGTQVTVSS,high polyreactivity
7,QVQLVESGGGLVQAGGSLRLSCAASGIIFRLNAMGWYRQAPGKERELGAAIRRRGGSTYYADSVKGRFTISRDNAKNTVYLQMNSLKPEDTAVYYCAADAPWAYYEYDYWGQGTQVTVSS,low polyreactivity
8,QVQLVESGGGLVQAGGSLRLSCAASGIIFRLNAMGWYRQAPGKERELVAAMRRRGGSTYYADSVKGRFTISRDNAKNTVYLQMNSLKPEDTAVYYCAKDPVTTFYKYDYWGQGTQVTVSS,low polyreactivity
9,QVQLVESGGGLVQAGGSLRLSCAASGIIFRLNAMGWYRQAPGKVRELVAAIRRRGGSTYYADSVKGRFTISRDNAKNTVYLQMNSLKPEDTAVYYCAKDPHGSDFGYWGQGTQVTVSS,low polyreactivity
10,QVQLVESGGGLVQAGGSLRLSCAASGIIFRNYAMGWYRQAPGKEREFVAAISYRGGTTYYADSVKGRFTISRDNAKNTVYLQMNSLKPEDTAVYYCAAPYYLQQSRYYYWGQGTQVTVSS,high polyreactivity
11,QVQLVESGGGLVQAGGSLRLSCAASGIIFRNYAMGWYRQAPGKERELVAAISSNGGSTYYADSVKGRFTISRDNAKNTVYLQMNSLKPEDTAVYYCAARHSLYGYWGQGTQVTVSS,high polyreactivity
12,QVQLVESGGGLVQAGGSLRLSCAASGIIFRPYAMGWYRQAPGKERELVAAITWSGTSTYYADSVKGRFTISRDNAKNTVYLQMNSLKPEDTAVYYCAARNVFQSVHLRGGYWGQGTQVTVSS,high polyreactivity
13,QVQLVESGGGLVQAGGSLRLSCAASGIIFRRYAMGWYRPEPGLVRELVAAISASGVRTYYADSVKGRFTISRDNAKNTVYFQMNSLKPEDTAVYYCAAATKRVEYEYWGQGTQVTVSS,high polyreactivity
14,QVQLVESGGGLVQAGGSLRLSCAASGIIFRRYAMGWYRQAPGKEREFVAAIRYTGGGTYYADSVKGRFTISRDNAKNTVYLQMNSLKPEDTAVYYCAARDRDTRNYYWGQGTQVTVSS,high polyreactivity
15,QVQLVESGGGLVQAGGSLRLSCAASGIIFRSYAMGWYRQAPGKERELVAGITRVGSTYYADSVKGRFTISRDNAKNTVYLQMHSLKPEDTAVYYCNAYNYWSDDYWGQGTQVTVSS,high polyreactivity
16,QVQLVESGGGLVQAGGSLRLSCAASGIIFRSYTMGWYRQAPGKERELVASITRSGGITYYADSVKGRFTISRDNAKNTVYLQMNSLKPEDTAVYYCSARHRYYSYSGYDYWGQGTQVTVSS,high polyreactivity
17,QVQLVESGGGLVQAGGSLRLSCAASGIIFRTNAMGWYRKAPGKEREFVAAISAGGTRTYYADSVKGRFTISRDNAKNTVYLQMNSLKPEDTAVYYCAAASGYDYWGQGTQVTVSS,high polyreactivity
18,QVQLVESGGGLVQAGGSLRLSCAASGIIFRYNTMGWYRQAPGKERELVAAITRSGGSTYYADSVKGRFTISRDNAKNTVYLQMNSLKPEDTAVYYCAAQGYSYRHTAFEYWGQGTQVTVSS,high polyreactivity
19,QVQLVESGGGLVQAGGSLRLSCAASGIIFRYYAMGWYRQAPGKERELVARITSRAGRTYYADSVKGRFTISRDYAKYTVYLQMNSLKPEDTAVYYCAARLYGRYGYWGQGTQVTVSS,high polyreactivity
20,QVQLVESGGGLVQAGGSLRLSCAASGIIFRYYTMGWYRQAPGTERELVAAITSGGSTNYADSVKGRFTISRDNAKNTVYLQMNSLKPEDTAVYYCRQFSVWGYDYWGQGTQVTVSS,high polyreactivity
